The values below come from the supplement of paper PMC7877785.

± gives the uncertainty stated by the source.

The nature of the series: self-splicing fitness, log relative to wild type (ln ratio); higher = more splicing; Tetrahymena group I intron in knt gene, E. coli kanamycin selection, DiMSum; sequences stand for … in CUCUCU…GGAGGGAAAAGUUAUCAGGCAUGCACCUGGUAGCUAGUCUUUAAACCAAUAGAUUGCAUCGGUUUAAAAGGCAAGACCGUCAAAUUGCGGGAAAGGGGUCAACAGCCGUUCAGUACCAAGUCUCAGGGGAAACUUUGAGAUGGCCUUGCAAAGGGUAUGGUAAUAAGCUGACGGACAUGGUCCUAACCACGCAGCCAAGUCCUAAGUCAACAGAUCUUCUGUUGAUAUGGAUGCAGUUCACAGACUAAAUGUCGGUCGGGGAAGAUGUAUUCUUCUCAUAAGAUAUAGUCGGACCUCUCCUUAAUGGGAGCUAGCGGAUGAAGUGAUGCAACACUGGAGCCGCUGGGAACUAAUUUGUAUGCGAAAGUAUAUUGAUUAGUUUUGGAGUACUCGUGGUCG
In outline:
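Six replicate transformations of E. coli BL21(DE3) with a pET-22b(+) library were grown overnight at 37°C or 30°C. The library randomised all eight P1ex-region intron nucleotides, the intron lying in the knt kanamycin-resistance gene, and plates were LB agar with or without 25 μg/mL kanamycin plus 100 μg/mL carbenicillin, 50 μM IPTG and 0.2% rhamnose. Pooled colonies were amplicon-sequenced on an Illumina HiSeq 2500, and fitness is the DiMSum error-weighted combination of wild-type-normalised replicate fold changes, kanamycin versus none.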

As for UCAGAGCAAUAUUACGUUAU, the “self-splicing fitness (ln)” value by setting is: (30 °C) -2.84 ± 0.19; (37 °C) -3.42 ± 0.4.
With UCCGAGCAAUAUUACGCCUC, the “self-splicing fitness (ln)” value (37 °C) is -1.34 ± 0.33.
With GUAGAGCAAUAUUACGAGGG, the “self-splicing fitness (ln)” value is, setting by setting: (30 °C) -3.25 ± 0.27; (37 °C) -2.38 ± 0.37.
The matching figures for UUAUAGCAAUAUUACGUGUG: -1.63 ± 0.083 and -0.419 ± 0.098.
Take UUCCAGCAAUAUUACGUCAC: the “self-splicing fitness (ln)” value was -2.79 ± 0.18 (30 °C) and -3.15 ± 0.29 (37 °C).
As to AAAUAGCAAUAUUACGAACC, the “self-splicing fitness (ln)” value was -1.91 ± 0.33 (30 °C) and 1.21 ± 0.28 (37 °C).
Take AUCAAGCAAUAUUACGGCGU: the “self-splicing fitness (ln)” value reads like this: (30 °C) 0.235 ± 0.1; (37 °C) 0.219 ± 0.11.
On to AAGGAGCAAUAUUACGUGCA, for which the “self-splicing fitness (ln)” value by setting is: (30 °C) -3.03 ± 0.18; (37 °C) -1.37 ± 0.17.
On to CUUUAGCAAUAUUACGAGCA, for which the “self-splicing fitness (ln)” value is, setting by setting: (30 °C) -3.14 ± 0.25; (37 °C) -3.05 ± 0.3.
In the case of GGUGAGCAAUAUUACGUGUG, the “self-splicing fitness (ln)” value (30 °C) is -3.28 ± 0.2 and the “self-splicing fitness (ln)” value (37 °C) is -2.47 ± 0.2.
As to UGCCAGCAAUAUUACGGUCA, the “self-splicing fitness (ln)” value is, setting by setting: (30 °C) -0.926 ± 0.081; (37 °C) -0.0439 ± 0.092.
For the sequence UGGAAGCAAUAUUACGCAAU, the “self-splicing fitness (ln)” value is, setting by setting: (30 °C) -1.81 ± 0.24; (37 °C) -0.664 ± 0.24.
For the sequence CAGCAGCAAUAUUACGGUAU, the “self-splicing fitness (ln)” value (30 °C) was -3.51 ± 0.15 and the “self-splicing fitness (ln)” value (37 °C) was -2.62 ± 0.13.
For CCUAAGCAAUAUUACGCGCU, the “self-splicing fitness (ln)” value (30 °C) was -2.38 ± 0.22 and the “self-splicing fitness (ln)” value (37 °C) was -2.75 ± 0.3.
In the case of UUCGAGCAAUAUUACGUUGG, the “self-splicing fitness (ln)” value reads like this: (30 °C) -4.14 ± 0.39; (37 °C) -2.03 ± 0.43.
Take UUAAAGCAAUAUUACGCGGU: the “self-splicing fitness (ln)” value (30 °C) is -3.37 ± 0.18 and the “self-splicing fitness (ln)” value (37 °C) is -0.344 ± 0.13.
In the case of GUGCAGCAAUAUUACGCCAG, the “self-splicing fitness (ln)” value (30 °C) is -2.82 ± 0.47.
On to CAGGAGCAAUAUUACGACCU, for which the “self-splicing fitness (ln)” value is, setting by setting: (30 °C) -1.36 ± 0.13; (37 °C) -0.563 ± 0.17.
As for AUUCAGCAAUAUUACGCAGU, the “self-splicing fitness (ln)” value is, setting by setting: (30 °C) -2.18 ± 0.17; (37 °C) 0.359 ± 0.15.
The matching figures for GCGCAGCAAUAUUACGGUUG: -2.53 ± 0.1 and -3.34 ± 0.19.
For ACGAAGCAAUAUUACGGUAC the same measures were -5.02 ± 0.38 and -2.24 ± 0.17.
For the sequence AGUCAGCAAUAUUACGAGCG, the “self-splicing fitness (ln)” value reads like this: (30 °C) -0.195 ± 0.09; (37 °C) -0.556 ± 0.1.
With AGUUAGCAAUAUUACGCUUU, the “self-splicing fitness (ln)” value was -2.56 ± 0.13 (30 °C) and -1.09 ± 0.13 (37 °C).
For AAUCAGCAAUAUUACGUUUG the same measures were -2.11 ± 0.092 and -1.94 ± 0.13.
The matching figures for CGGUAGCAAUAUUACGGGAC: -3.63 ± 0.47 and -4.61 ± 0.46.
Turning to GUAGAGCAAUAUUACGUUAU, the “self-splicing fitness (ln)” value was -1.68 ± 0.086 (30 °C) and -0.698 ± 0.091 (37 °C).
With AUCAAGCAAUAUUACGCGGA, the “self-splicing fitness (ln)” value by setting is: (30 °C) -2.07 ± 0.1; (37 °C) -1.94 ± 0.088.
As to UGUAAGCAAUAUUACGCACC, the “self-splicing fitness (ln)” value (30 °C) is -0.744 ± 0.36 and the “self-splicing fitness (ln)” value (37 °C) is 0.286 ± 0.37.
In the case of CGUGAGCAAUAUUACGACAG, the “self-splicing fitness (ln)” value (30 °C) is -0.792 ± 0.092 and the “self-splicing fitness (ln)” value (37 °C) was -0.318 ± 0.1.
On to GCCCAGCAAUAUUACGGAGG, for which the “self-splicing fitness (ln)” value reads like this: (30 °C) -4.2 ± 0.15; (37 °C) -2.51 ± 0.13.
In the case of AAACAGCAAUAUUACGCUGC, the “self-splicing fitness (ln)” value by setting is: (30 °C) -4.51 ± 0.19; (37 °C) -1.81 ± 0.13.
With CAUCAGCAAUAUUACGCCCC, the “self-splicing fitness (ln)” value (30 °C) was -1.56 ± 0.21.
In the case of AUCUAGCAAUAUUACGCGAG, the “self-splicing fitness (ln)” value by setting is: (30 °C) -1.92 ± 0.14; (37 °C) -0.183 ± 0.1.
In the case of GGGAAGCAAUAUUACGGUAA, the “self-splicing fitness (ln)” value reads like this: (30 °C) -3.01 ± 0.41; (37 °C) -0.554 ± 0.17.
In the case of CUAUAGCAAUAUUACGCGAG, the “self-splicing fitness (ln)” value was -1.85 ± 0.29 (30 °C) and 0.335 ± 0.21 (37 °C).
On to ACUCAGCAAUAUUACGAGCC, for which the “self-splicing fitness (ln)” value is, setting by setting: (30 °C) -1.32 ± 0.079; (37 °C) -0.908 ± 0.11.
As for ACGAAGCAAUAUUACGACAU, the “self-splicing fitness (ln)” value reads like this: (30 °C) -0.681 ± 0.011; (37 °C) -0.109 ± 0.032.
Take AUGGAGCAAUAUUACGUCUU: the “self-splicing fitness (ln)” value by setting is: (30 °C) -2.52 ± 0.16; (37 °C) -1.81 ± 0.21.
